From publication PMC6940538 (Angewandte Chemie (International ed. in English), 2019) come the findings set out here.

The series “crystal structure” concerns the molecule itself. The series is described as follows: crystal structure.
The series “SEC” deals with the molecule itself. The series is described as follows: SEC. For orientation: In gel filtration, larger molecules generally elute earlier.
The series “AUC” concerns the molecule itself. The series is described as follows: AUC.

B1: MtmW (ΔN3) (enzyme, Streptomyces argillaceus, UniProt Q194Q1 4-326, looked up)
chain: VEFRSLGRSGLSVSEIVYGNLLYPQDDTPDEVVLSSIRAALDAGVTTFDTADVYGMFRSESLLGRALAGTPREELVLCTKVGMPTGFGPNGRGLSRKHVMESVDGSLRRLRVDHIDVYTAHRYDPATPLEELMWTFSDLVRAGKILYVGMSEWPVERIAEAAGIGARLGVPVICHMPRYSMLWRAPEAEVIPACRDLGIGQICYFTLEQGVLTGKYAPGAPPPAGSRATAPKGGRAPLMRRWLDDDKVLGRVERLRPLAEEAGLTTAHLAWVLQNPAVSGAVIGSFNAEQVLANAESAGVRLETDLLVRIDEVLGDSVVHDEE
As usually defined, the stoichiometry N is a count of units in the complex or per binding partner. Turning to B1, the “stoichiometry N” value in the series “crystal structure” is 8.

B2: MtmW (enzyme, Streptomyces argillaceus, UniProt Q194Q1 1-326, looked up)
chain: MVAVEFRSLGRSGLSVSEIVYGNLLYPQDDTPDEVVLSSIRAALDAGVTTFDTADVYGMFRSESLLGRALAGTPREELVLCTKVGMPTGFGPNGRGLSRKHVMESVDGSLRRLRVDHIDVYTAHRYDPATPLEELMWTFSDLVRAGKILYVGMSEWPVERIAEAAGIGARLGVPVICHMPRYSMLWRAPEAEVIPACRDLGIGQICYFTLEQGVLTGKYAPGAPPPAGSRATAPKGGRAPLMRRWLDDDKVLGRVERLRPLAEEAGLTTAHLAWVLQNPAVSGAVIGSFNAEQVLANAESAGVRLETDLLVRIDEVLGDSVVHDEE
Consider B2, for which the entries for the “stoichiometry N” value in the series “SEC” and in the series “AUC” were approximately 8 and 8, respectively.
